Data taken from US20230242654A1, “REAGENTS FOR EXPANDING CELLS EXPRESSING RECOMBINANT RECEPTORS” (Juno Therapeutics, Inc., priority 2017, published 2023).

System: anti-BCMA CARs
Assay: BCMA-Fc fusion protein binding to CAR T cells by flow cytometry
Conditions: versus T cells expressing CARs that do not bind BCMA
Procedure: The clone encoding the recombinant human BCMA-Fc fusion construct with the N-terminal CD33 leader sequence (SEQ ID NO: 30) was inserted into an expression vector and expressed in HEK 293 cells. Supernatant from the transiently transfected HEK cells was harvested after 5 days and the BCMA-FC fusion protein was purified by protein A affinity chromatography and size exclusion chromatography (SEC). The resulting BCMA-Fc fusion protein was determined to have a purity of greater than 95% as assessed by gel permeation chromatography.

B1: BCMA-Fc fusion protein: extracellular domain of human BCMA and a human IgG1 Fc connected with a linker (SEQ ID NO: 35) (protein)
chain: MLQMAGQCSQNEYFDSLLHACIPCQLRCSSNTPPLTCQRYCNASVTNSVKGTNAGGGGSPKSSDKTHTCPPCPAPEAEGAPSVFLFPPKPKDTLMISRTPEVTCVVVDVSHEDPEVKFNWYVDGVEVHNAKTKPREEQYNSTYRVVSVLTVLHQDWLNGKEYKCKVSNKALPSSIEKTISKAKGQPREPQVYTLPPSRDELTKNQVSLTCLVKGFYPSDIAVEWESNGQPENNYKTTPPVLDSDGSFFLYSKLTVDKSRWQQGNVFSCSVMHEALHNHYTQKSLSLSPGK
modifications: BCMA-Fc fusion polypeptide
B1 was tested. Which “binding of BCMA-Fc to CAR expressing T cells” value did it give?
Its value is “specifically bound to anti-BCMA CAR expressing T cells”.
